Measurements as given in patent publication US20140193431A1 (KOREA RESEARCH INSTITUTE OF BIOSCIENCE AND BIOTECHNOLOGY, published 2014).

What was measured:
[1] = target: T1, dog Met receptor on MDCK cells (dog, UniProt Q75ZY9 25-1382); test: FACS on MDCK cells, Alexa Fluor 488 anti-human IgG
T1 construct: whole, on cells; also called Met receptor of dog kidney MDCK (Madin-Darby Canine Kidney) cells
Protocol: Each of Hep3B, HeLa, A549 and HepG2, known to readily express the Met receptor, MCF7 cells known to not readily express the Met receptor, and dog kidney MDCK (Madin-Darby Canine Kidney) cells was prepared, washed twice with PBS, detached by treatment with trypsin, washed again with PBS, and then suspended in PBS (PBA buffer) containing 1% BSA protein. Then, the cells were treated with the purified with the purified B7 antibody at 1:100 at 4° C., after which the cells were washed with PBA buffer and precipitated by centrifugation at 1200 rpm for 3 minutes, and the washing and precipitation process was repeated three times. […] The cells were washed in the same manner as described above and subjected to FACS analysis (BD Cantoll Flow Cytometer) (FIG. 6). Herein, human IgG (hIgG) was used as the internal standard. FIG. 6 is a graphic diagram showing the results of FACS analysis performed to examine whether the B7 antibody did bind to Hep3B, HeLa, A549, HepG2, MCF7 and dog kidney MDCK cells.

[2] = target: c-Met (ligand of the SPR analysis, form not stated) (UniProt P08581); test: SPR (ProteOn XPR36), B7 antibody flowed at 2.5-80 nM, Langmuir 1:1 model; immobilised protein not named
[3] = target: c-Met (ligand of the SPR analysis, form not stated) (UniProt P08581); test: SPR (ProteOn XPR36), B7 at 2.5 to 80 nM as analyte, Langmuir 1:1 fit, grouped

T1 sequence (Q75ZY9 25-1382): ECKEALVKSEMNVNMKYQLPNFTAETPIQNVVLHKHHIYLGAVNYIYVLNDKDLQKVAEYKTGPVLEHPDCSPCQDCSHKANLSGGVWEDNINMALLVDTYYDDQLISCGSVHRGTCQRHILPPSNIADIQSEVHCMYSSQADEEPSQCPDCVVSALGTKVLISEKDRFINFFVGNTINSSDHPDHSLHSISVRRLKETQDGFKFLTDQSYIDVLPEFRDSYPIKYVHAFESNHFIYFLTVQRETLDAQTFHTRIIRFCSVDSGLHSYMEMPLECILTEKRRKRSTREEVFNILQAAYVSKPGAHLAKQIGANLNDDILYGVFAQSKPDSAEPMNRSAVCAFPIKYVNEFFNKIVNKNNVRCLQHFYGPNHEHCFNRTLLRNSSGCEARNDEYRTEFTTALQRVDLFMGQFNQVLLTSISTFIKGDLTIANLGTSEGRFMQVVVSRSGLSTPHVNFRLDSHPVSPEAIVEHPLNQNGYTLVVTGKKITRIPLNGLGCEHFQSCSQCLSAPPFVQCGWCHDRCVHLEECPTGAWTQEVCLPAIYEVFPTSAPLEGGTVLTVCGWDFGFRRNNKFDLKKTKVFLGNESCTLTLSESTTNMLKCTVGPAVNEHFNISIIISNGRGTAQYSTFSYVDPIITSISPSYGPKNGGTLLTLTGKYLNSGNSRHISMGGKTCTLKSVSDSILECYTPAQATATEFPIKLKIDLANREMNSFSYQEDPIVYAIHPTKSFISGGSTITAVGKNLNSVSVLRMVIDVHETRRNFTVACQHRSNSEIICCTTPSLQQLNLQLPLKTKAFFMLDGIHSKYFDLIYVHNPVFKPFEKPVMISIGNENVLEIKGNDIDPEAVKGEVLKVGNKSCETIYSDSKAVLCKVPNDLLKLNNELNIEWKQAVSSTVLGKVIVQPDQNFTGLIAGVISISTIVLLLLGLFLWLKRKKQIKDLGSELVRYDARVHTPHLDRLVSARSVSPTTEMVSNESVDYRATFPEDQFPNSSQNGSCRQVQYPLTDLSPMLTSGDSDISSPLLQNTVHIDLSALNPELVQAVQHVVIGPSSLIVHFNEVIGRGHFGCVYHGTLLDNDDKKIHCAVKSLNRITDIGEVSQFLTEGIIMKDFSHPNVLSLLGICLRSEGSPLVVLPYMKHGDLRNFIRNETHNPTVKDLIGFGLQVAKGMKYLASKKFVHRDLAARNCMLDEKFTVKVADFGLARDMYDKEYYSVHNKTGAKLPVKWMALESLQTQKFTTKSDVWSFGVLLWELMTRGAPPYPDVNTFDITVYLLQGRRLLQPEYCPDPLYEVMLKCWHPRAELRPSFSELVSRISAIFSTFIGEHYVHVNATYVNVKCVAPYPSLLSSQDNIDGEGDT

B1: B7 antibody (human anti-c-Met antibody, whole IgG) (antibody, V domains shown)
VH: QVQLQEWGAGLLKPSETLSLTCAVSGGSLSGHYWSWVRLPPGKGLEWIGEISHSGNTNYNSSLKSRASISIDTSKNEYSLNLKSVTAVDTAVYYCARFYGDYPSSYGMDVWGQGTTVTVSS
VL: QSALTQPASVSGSPGQSITISCTGTISDIGTYDFVSWYQHKPGKAPKLLIFDVNNRPSGVSSRFSGSKSDNTASLSISGFQAEDEADYYCSSYTDNRGLVLFGGGTKLTVLR
notes: Whole IgG made by cloning the B7 phage variable regions into pNATABH/pNATABL vectors and expressing them in 293E cells; also called human antibody B7; C-Met B7 antibody
- binding result [1]: no binding (tested: 1:100)
- Kd [2]: 3.3 nM
- kon [3]: 73000 M⁻¹ s⁻¹
